No end group written: not given here.

We go through 2 molecules from patent US20240165208A1, “Mutant KRAS-Targeting Peptide and Use Thereof” (GJMEDI INC., priority 2020, published 2024).

In one data set the test system is AsPC-1 cells. Type of data set: cell-based. The note with it: 48 h. On the procedure:
Through 3-(4,5-dimethylthiazol-2-yl)-2,5-diphenyltetrazolium bromide (MTT) analysis, an effect of the anticancer peptide GJ101 on the cell viability of cancer cells was examined. For the cell viability analysis, AsPC-1 cells as a pancreatic cancer cell line were used. The pancreatic cancer cell line was prepared by dispensing the pancreatic cancer cell line at 1×10^3 cells/well (100 μL) and adhering thereto. To treat the anticancer peptide GJ101, the medium of the cells was replaced with a new medium (RPMI-1640). The pancreatic cancer cell lines with different adhering times were treated with the anticancer peptide GJ101 while increasing a concentration gradient, respectively. The pancreatic cancer cells treated with the anticancer peptide GJ101 were incubated for 24 or 48 hours, respectively. Each incubated pancreatic cancer cell was added with an MTT solution (5 mg/mL) and incubated for 90 minutes. After the end of the incubation, an optical density (OD) of pancreatic cancer cells was measured at 540 nm using a microplate reader (Molecular Devices, USA), and a maximum concentration (GI50) at which the growth of pancreatic cancer cells was reduced by half was confirmed. The result of examining the effect of the anticancer peptide GJ101 on the cell viability of tumor cells was illustrated in FIG. 5.

Data set [1] can be described thus: body weight and general condition in cancer animal model. Format: in vivo. The note with it: GJ101 25 mg/kg or 50 mg/kg. The method, then: To prepare a cancer animal model, AsPC-1 cells as a pancreatic cancer cell line were prepared by dissociation in a Hanks' balanced salt solution (HBSS) and a materigel. The prepared AsPC-1 cells were transplanted into the right flank of a nude mouse at an amount of 2×10^6 cells/10 μL/animal to prepare a cancer animal model.
For an experiments to be described later, the anticancer peptide GJ101 was administered at a concentration of 25 mg/kg or 50 mg/kg from day 16 after the preparation of the cancer animal model. In addition, a control group (Vehicle) was treated with 10% DMSO, 40% PEG400, and 50% DW.
A drug was administered to a cancer animal model, and then the body weight of the individual was measured once a day, and the result were illustrated in FIG. 6.

The target in data set [2] is T1, KRAS G12V protein (UniProt P01116-2 1-188, limits assumed).
T1 construct: also called mutant KRAS G12V; mutant Kirsten-RAS
As to the kind of experiment: ITC, calculated from K and ΔH. The method, then:
(§1) In order to examine the affinity of the anticancer peptide GJ101 to the KRAS G12V protein, isothermal titration heat was measured using isothermal titration calorimetry (ITC). Specifically, the KRAS G12V protein was prepared by dialysis with a buffer [20 mM Tris-HCl (pH 7.4), 100 mM NaCl, and 2 mM MgCl₂] so that the final concentration of the KRAS G12V protein was 0.1 mM. Next, the anticancer peptide GJ101 was prepared by diluting the anticancer peptide GJ101 to a concentration of 1.0 mM using the same buffer as described above. Isothermal titration heat measurement was performed by injecting the prepared KRAS G12V protein and anticancer peptide GJ101 into isothermal titration calorimetry. In the isothermal titration heat measurement, the anticancer peptide GJ101 was injected 20 times at 25° C. while stirring at a rate of 1,000 rpm. ΔS was calculated from a standard thermodynamic equation using the calculated K and ΔH values. The results of isothermal titration calorimetry were illustrated in FIG. 3.

For data set [3], the target named is T1, KRAS G12V protein. As to the kind of experiment: ITC, GJ101 (1.0 mM) injected into KRAS G12V (0.1 mM), 25 °C. On the procedure: as §1
In general terms: ITC needs no label: the signal is the heat of the interaction.

Turning to LYDVA [GJ101], in the data set with AsPC-1 cells, the GI50 turned out to be 16 µM. For the same molecule, the “moribund state or behavioral abnormalities” value in data set [1] was “not observed”.

B1: anticancer peptide GJ101 (peptide)
peptide: LYDVA
notes: Synthesised by solid phase peptide synthesis and purified by RP-HPLC to 95% or more; said to consist of 5 amino acids and to be derived from H-REV107; also called mutant KRAS-targeting anticancer peptide
On to B1, for which the ΔS with KRAS G12V protein [2] was 19.3 cal/mol/deg. In the data set with KRAS G12V protein [3], this molecule returned a Ka of 86500 M⁻¹, a dissociation constant (Kd) of 12 µM and a ΔH of -0.994 kcal/mol.

A word on the GI50: it is the concentration giving 50% growth inhibition. High values mean less potent growth inhibition, low ones more potent growth inhibition. As a reminder, the Kd is the equilibrium constant for the complex coming apart. A low value points to tighter binding.
